Measurements published in patent US8119364B2, “Methods for generating analogs of coenzyme A” (The Regents of the University of California, priority 2005, dated 2012).

Substrate: CC(C)(CO)[C@@H](O)C(=O)NCCC(=O)O
Test: Kinetic assay of pantetheine analogs as substrates of PanK
Type: biochemical
Settings: other: compound as substrate of E. coli PanK
Protocol: As mentioned earlier, phosphorylation of the primary hydroxyl group of pantothenate by the first protein in the CoA biosynthesis pathway, PanK, is believed to be the rate limiting step in vivo. Jackowski and Rock, J. Bacteria 148:926, 1981. Due to its role as the gatekeeper of CoA biosynthesis, each of the new analogs was assayed for kinetic activity with PanK (Table 2).
The assay was performed as previously described using the prototypical bacterial PanK, CoAA from E. coli. Kumar and Aldrich, Org. Lett. 5:613, 2003. The reaction of CoAA with the natural substrate pantothenate gave values that conformed to those previously reported in the literature. Worthington and Burkart, Org. Biomol. Chem. 4:44, 2005; Strauss and Begley, J. Biol. Chem. 277:48205, 2002. […] Conversely, compounds with PEG linkers between the pantoic acid moiety and the bioorthogonal terminus were poor substrates for CoAA.

B1: E. coli PanK (CoAA) (Escherichia coli K-12) (protein)
chain: MSIKEQTLMTPYLQFDRNQWAALRDSVPMTLSEDEIARLKGINEDLSLEEVAEIYLPLSRLLNFYISSNLRRQAVLEQFLGTNGQRIPYIISIAGSVAVGKSTTARVLQALLSRWPEHRRVELITTDGFLHPNQVLKERGLMKKKGFPESYDMHRLVKFVSDLKSGVPNVTAPVYSHLIYDVIPDGDKTVVQPDILILEGLNVLQSGMDYPHDPHHVFVSDFVDFSIYVDAPEDLLQTWYINRFLKFREGAFTDPDSYFHNYAKLTKEEAIKTAMTLWKEINWLNLKQNILPTRERASLILTKSANHAVEEVRLRK
With B1 the Km was 28.56 ± 1.77 µM, the kcat was 0.521 ± 0.00967 s⁻¹ and the kcat/Km was 18200 ± 680 M⁻¹ s⁻¹.
